Measurements from patent publication US20120316071A1 (published 2012).

How the values were obtained:
[1] = target: T1, Recombinant Human DLL4 (R&D Systems Cat#1506-D4/CF) (human, UniProt Q9NR61 27-524); experiment: ELISA on coated DLL4, 100 nM Fab
T1 construct: Bought recombinant human DLL4; also called delta-like protein 4; rHuman DLL4

[2] = target: T1, Recombinant Human DLL4 (R&D Systems …); experiment: ECL (MSD) binding assay, immobilised DLL4, 10 nM Fab;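 also: fab binding read as electrochemiluminescence via a TAG-labelled detection antibody, 1 h incubations at 20 °C, antigen signal compared with each well's blank, ratio of at least 4 scored as binder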
[3] = target: T2, Recombinant Human DLL4 (delta-like protein 4) (human, UniProt Q9NR61 27-524); experiment: ECL (MSD) binding assay, DLL4 immobilised, Fab at 10 nM
T2 construct: also called rHuman DLL4; Delta-like 4

Binder | ELISA Signal [100 nM Fab] [1] | ECL Signal [10 nM Fab] [2] | Signal [10 nM Fab] [3]
Fab VH5-51_IGHD5-18*01>3_IGHJ4*01 G100K/G104T (H:KT) & V3-4_IGLJ1*01 S96A (Fab, V domains shown, Fab format: CH1 with His6 and Flag tags, and lambda CL, from the vectors; also called G100K/G104T & S96A) VH: EVQLVQSGAEVKKPGESLKISCKGSGYSFTSYWIGWVRQMPGKGLEWMGIIYPGDSDTRYSPSFQGQVTISADKSISTAYLQWSSLKASDTAMYYCARRKYSYTYDYFDYWGQGTLVTVSS VL: QTVVTQEPSFSVSPGGTVTLTCGLSSGSVSTSYYPSWYQQTPGQAPRTLIYSTNTRSSGVPDRFSGSILGNKAALTITGAQADDESDYYCVLYMGAGISYVFGTGTKVTVL | 0 | 1130 | –
Fab VH1-46_IGHD6-6*01_IGHJ1*01 S102A/S103P/S104F/H111F & L6_IGKJ1*01 (Fab, V domains shown, also called H:APFF & L:wt; APFF) VH: QVQLVQSGAEVKKPGASVKVSCKASGYTFTSYYMHWVRQAPGQGLEWMGIINPSGGSTSYAQKFQGRVTMTRDTSTSTVYMELSSLRSEDTAVYYCAREEYAPFSAEYFQFWGQGTLVTVSS VL: not shown | – | – | 13500
Fab VH1-46_IGHD6-6*01_IGHJ1*01 S102A/S103P/S104F/H111F & L6_IGKJ1*01 T56A (Fab, V domains shown, also called APFF & L6_IGKJ1*01 T56A) VH: QVQLVQSGAEVKKPGASVKVSCKASGYTFTSYYMHWVRQAPGQGLEWMGIINPSGGSTSYAQKFQGRVTMTRDTSTSTVYMELSSLRSEDTAVYYCAREEYAPFSAEYFQFWGQGTLVTVSS VL: EIVLTQSPATLSLSPGERATLSCRASQSVSSYLAWYQQKPGQAPRLLIYDASNRAAGIPARFSGSGSGTDFTLTISSLEPEDFAVYYCQQRSNWPPWTFGQGTKVEIKR | – | – | 7260
Fab VH1-46_IGHD6-6*01_IGHJ1*01 S102A/S103P/S104F/H111F & L6_IGKJ1*01 D50A (Fab, V domains shown, also called APFF & L6_IGKJ1*01 D50A) VH: QVQLVQSGAEVKKPGASVKVSCKASGYTFTSYYMHWVRQAPGQGLEWMGIINPSGGSTSYAQKFQGRVTMTRDTSTSTVYMELSSLRSEDTAVYYCAREEYAPFSAEYFQFWGQGTLVTVSS VL: EIVLTQSPATLSLSPGERATLSCRASQSVSSYLAWYQQKPGQAPRLLIYAASNRATGIPARFSGSGSGTDFTLTISSLEPEDFAVYYCQQRSNWPPWTFGQGTKVEIKR | – | – | 4230
Fab VH1-46_IGHD6-6*01_IGHJ1*01 S102A/S103P/S104F/H111F & L6_IGKJ1*01 N53A (Fab, V domains shown, also called APFF & L6_IGKJ1*01 N53A) VH: QVQLVQSGAEVKKPGASVKVSCKASGYTFTSYYMHWVRQAPGQGLEWMGIINPSGGSTSYAQKFQGRVTMTRDTSTSTVYMELSSLRSEDTAVYYCAREEYAPFSAEYFQFWGQGTLVTVSS VL: EIVLTQSPATLSLSPGERATLSCRASQSVSSYLAWYQQKPGQAPRLLIYDASARATGIPARFSGSGSGTDFTLTISSLEPEDFAVYYCQQRSNWPPWTFGQGTKVEIKR | – | – | 14200
Fab VH1-46_IGHD6-6*01_IGHJ1*01 S102A/S103P/S104F/H111F & L6_IGKJ1*01 S52A (Fab, V domains shown, also called APFF & L6_IGKJ1*01 S52A) VH: QVQLVQSGAEVKKPGASVKVSCKASGYTFTSYYMHWVRQAPGQGLEWMGIINPSGGSTSYAQKFQGRVTMTRDTSTSTVYMELSSLRSEDTAVYYCAREEYAPFSAEYFQFWGQGTLVTVSS VL: EIVLTQSPATLSLSPGERATLSCRASQSVSSYLAWYQQKPGQAPRLLIYDAANRATGIPARFSGSGSGTDFTLTISSLEPEDFAVYYCQQRSNWPPWTFGQGTKVEIKR | – | – | 19300
Fab VH1-46_IGHD6-6*01_IGHJ1*01 S102A/S103P/S104F/H111F & L6_IGKJ1*01 A51T (Fab, V domains shown, also called APFF & L6_IGKJ1*01 A51T) VH: QVQLVQSGAEVKKPGASVKVSCKASGYTFTSYYMHWVRQAPGQGLEWMGIINPSGGSTSYAQKFQGRVTMTRDTSTSTVYMELSSLRSEDTAVYYCAREEYAPFSAEYFQFWGQGTLVTVSS VL: EIVLTQSPATLSLSPGERATLSCRASQSVSSYLAWYQQKPGQAPRLLIYDTSNRATGIPARFSGSGSGTDFTLTISSLEPEDFAVYYCQQRSNWPPWTFGQGTKVEIKR | – | – | 2850
Fab VH1-46_IGHD6-6*01_IGHJ1*01 S102A/S103P/S104F/H111F & L6_IGKJ1*01 A55T (Fab, V domains shown, also called APFF & L6_IGKJ1*01 A55T) VH: QVQLVQSGAEVKKPGASVKVSCKASGYTFTSYYMHWVRQAPGQGLEWMGIINPSGGSTSYAQKFQGRVTMTRDTSTSTVYMELSSLRSEDTAVYYCAREEYAPFSAEYFQFWGQGTLVTVSS VL: EIVLTQSPATLSLSPGERATLSCRASQSVSSYLAWYQQKPGQAPRLLIYDASNRTTGIPARFSGSGSGTDFTLTISSLEPEDFAVYYCQQRSNWPPWTFGQGTKVEIKR | – | – | 13200
Fab VH1-46_IGHD6-6*01_IGHJ1*01 S102A/S103P/S104F/H111F & L6_IGKJ1*01 R54A (Fab, V domains shown, also called APFF & L6_IGKJ1*01 R54A) VH: QVQLVQSGAEVKKPGASVKVSCKASGYTFTSYYMHWVRQAPGQGLEWMGIINPSGGSTSYAQKFQGRVTMTRDTSTSTVYMELSSLRSEDTAVYYCAREEYAPFSAEYFQFWGQGTLVTVSS VL: EIVLTQSPATLSLSPGERATLSCRASQSVSSYLAWYQQKPGQAPRLLIYDASNAATGIPARFSGSGSGTDFTLTISSLEPEDFAVYYCQQRSNWPPWTFGQGTKVEIKR | – | – | 11600
